The text below walks through data of the nanobody polyreactivity screen of Harvey et al. (2022).

The nature of this data set: yeast display, Sf9 membrane polyspecificity reagent, FACS + sequencing; frameworks hold sequencing errors. A digest of the protocol:
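Synthetic nanobody libraries on Saccharomyces cerevisiae BJ5465 were galactose-induced for 36–48 hours, stained 1 hour at 4 °C with 10% biotinylated, detergent-solubilized Sf9 membrane reagent and enriched on streptavidin microbeads. FACS then separated cells into low and high (top ~1%) gates by anti-HA (expression) and streptavidin (reagent binding) fluorescence. Genes were colony-PCR amplified, MiSeq 2 × 250 sequenced and CDR-length filtered. A clone's polyreactivity label is that of its gate of origin.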
In the case of “QVQLVESGGGLVQAGGSLRLSCAASGRIFIPYAMGWYRQAPGKERELVAAISSSGGSTYYADSVKGRFTISRDTAKNTVYLQMNSLKPEDTAVYYCAARLYWGYAYETYSSLFEYDYWGQGTQVTVSS”, the “polyreactivity (PSR sort gate)” value is “low polyreactivity”.
As to “QVQLVESGGGLVQAGGSLRLSCAASGRIFIRNAMGWYRQAPGKERELVAAITQSGGSTYYADSVKGRFSISRVYAKNTVYLQMNSLKPEDTAVYYCNAVRYNCVGYDYWGQGTQVTVSS”, the “polyreactivity (PSR sort gate)” value is listed as “high polyreactivity”.
In the case of “QVQLVESGGGLVQAGGSLRLSCAASGRIFIRNDMGWYRQAPGKERELVAVITRSGGRTYYADSVKGRFTISRDNAKNTVYLQMHSLKPEDTAVYSCAKRQAFKQAPYEYWGQGTQVTVSS”, the “polyreactivity (PSR sort gate)” value is “low polyreactivity”.
With “QVQLVESGGGLVQAGGSLRLSCAASGRIFISNAKGWYRQAPGKERELVAAITWIGDRTYYADSVKGRFTISRDNAKNTVYLQMNSLKPEDTAVYYCNRVTSRVSGRYSYDYWGQGTQVTVSS” the entry was “high polyreactivity”; with “QVQLVESGGGLVQAGGSLRLSCAASGRIFIWYGMGCYRQAPGKERELVADISSTGSTNYADSVKGRFTISRDNAKNTVYLQMNSLKPEDTAVYYCAADPETPYYTTYDYDYWGQGTQVTVSS”, “low polyreactivity”.
For the sequence “QVQLVESGGGLVQAGGSLRLSCAASGRIFIYNAKGWYRQAPGKERELVAAITSDGTTNYADSVKGRFTISRDNAKNTVYLQMNSLKPEDTAVYYCAVDPFGSLVTYDYWGQGTQVTVSS”, the “polyreactivity (PSR sort gate)” value is reported as “low polyreactivity”.
Next, “QVQLVESGGGLVQAGGSLRLSCAASGRIFIYYAMGWYRQAPGKERELVAAITSGGSTIYADSVKGRFTIPRDNAKNTVYLQMNSLKPEDTAVYDCAARYVRSQTRFDYWGQGTQVTVSS”: “high polyreactivity”; “QVQLVESGGGLVQAGGSLRLSCAASGRIFKAYAMGWYRQAPGKERELVAVITGTGRTTYADSVKGRFTISRDNAKNTVYLQMNSLKPEDTAVYYCNVRWYYKGDYWGQGTLVTVSS”: “high polyreactivity”; “QVQLVESGGGLVQAGGSLRLSCAASGRIFKCYAMGWYRQAPGKERELVAAISSGGRTYYADSVKGRFTISRDNAKNTVYLQMNSLKPEDTAVYYCAALQRTGPYAGSSGYWGQGSQVTVSS”: “high polyreactivity”.
Next, “QVQLVESGGGLVQAGGSLRLSCAASGRIFKDNAMGWYRQAPGKERELVATIDSGGDTNYADSVKGRFTISRDNAKNTVYLQMNSLKPEDTAVYYCNRDSRVLEGDYWGQGTQVTVSS”: “low polyreactivity”; “QVQLVESGGGLVQAGGSLRLSCAASGRIFKGYAMGWYRQAPGKESELVAAITWRGGTTYYADSVKGRFTISRDNAKNTVYLQMNSLKPEDTAVYYCARARPTGYNYWGQGTQVTVSS”: “high polyreactivity”.
On to “QVQLVESGGGLVQAGGSLRLSCAASGRIFKINAMGWYRQAPGKERELVAGISGSGSDTYYSDSVKGRFTISRDNAKNTVYLQMNSLKPEDTAVYYCAAVAYDWALFYYWGQGTQVTVSS”, for which the “polyreactivity (PSR sort gate)” value was “low polyreactivity”.
With “QVQLVESGGGLVQAGGSLRLSCAASGRIFKINAMGWYRQAPGKERELVATITRDGRTYYADSVKGRFTISRDNAKNTVYLQMNSLKPEDTAVYYCNVRRAFSGWRGYDYWGQGTQVTVSS”, the “polyreactivity (PSR sort gate)” value is “high polyreactivity”.
Next, “QVQLVESGGGLVQAGGSLRLSCAASGRIFKLYAMGWYRQAPGKERELVASITWGGGSTNYADSVKGRFTISRDNAKNTVYLQMNSLKPEDTAVYYCAAVYSKYAVFWEYDYWGQGTQVTVSS”: “low polyreactivity”; “QVQLVESGGGLVQAGGSLRLSCAASGRIFKLYAMGWYRQAPGKERELVATIRYSGGSTYYADSVKGRFTISRDNAKNSVYLHMNSLKPEDTAVYYCNYVSRRQYFEYDYWGQGTQVTVSS”: “low polyreactivity”.
With “QVQLVESGGGLVQAGGSLRLSCAASGRIFKLYAMGWYRQAPGKESELVAAITRRGGSTSYADSVKGRFTISRVNAKNTVYLQMNSLKPEDTSVYYCAASLSPWFTSYYLPYDLGYWGQGTQVTVSS” the entry was “high polyreactivity”.
